Data on two molecules can be found in article PMC3012607, “From an electrophoretic mobility shift assay to isolated transcription factors: a fast genomic-proteomic approach”.

For data set [1], the target named is T1, 2488prp DBD (Xpp1 candidate) (Hypocrea jecorina (Trichoderma reesei), UniProt G0RQ24 395-492).
T1 sequence: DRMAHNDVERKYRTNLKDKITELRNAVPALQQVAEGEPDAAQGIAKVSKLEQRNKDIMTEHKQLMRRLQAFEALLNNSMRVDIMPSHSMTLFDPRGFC
The experiment in a line: EMSA; EMSA: 100 ng DBD or 60 ng IVT protein with 15 ng FAM probe, 15 min on ice, binding buffer per cited ref [41]; pull-down binding mix: 200 mM KCl, 200 ng/uL poly(dIdC), 200 ng/uL CKT067/CKT068, 8 mM spermidine, on ice. The note with it: protein: recombinant; tags: GST removed by thrombin; chain copies: 2; label: 5'-FAM on strand 1; blunt. (In general: A gel shift assay detects complexes by their altered migration in electrophoresis.)

A further data set deals with T2, 2488prp (Xpp1 candidate) (Hypocrea jecorina (Trichoderma reesei), UniProt G0RQ24 1-492).
T2 sequence: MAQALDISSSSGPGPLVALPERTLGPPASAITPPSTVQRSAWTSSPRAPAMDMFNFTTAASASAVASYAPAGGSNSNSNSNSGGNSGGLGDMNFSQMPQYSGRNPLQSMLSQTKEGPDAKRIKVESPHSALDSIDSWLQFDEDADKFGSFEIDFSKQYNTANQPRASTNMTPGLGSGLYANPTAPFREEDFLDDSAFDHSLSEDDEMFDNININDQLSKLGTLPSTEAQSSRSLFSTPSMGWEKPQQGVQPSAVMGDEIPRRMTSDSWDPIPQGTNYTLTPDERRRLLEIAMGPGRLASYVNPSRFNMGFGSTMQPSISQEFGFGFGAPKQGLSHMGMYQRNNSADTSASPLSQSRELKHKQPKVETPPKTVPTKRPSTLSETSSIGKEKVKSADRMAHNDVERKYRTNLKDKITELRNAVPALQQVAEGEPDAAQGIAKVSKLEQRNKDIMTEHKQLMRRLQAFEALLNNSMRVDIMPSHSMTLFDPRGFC
The data set is described as above. Particulars: protein: ivt; chain copies: 2; label: 5'-FAM on strand 1; blunt.

B1: Lpxyn2 (dsDNA)
DNA 1: TGATGAAAGGAGAACAACTTCTAGACTGGGTAAATTGGTCAATGGCCAGCCGCTC
DNA 2: GAGCGGCTGGCCATTGACCAATTTACCCAGTCTAGAAGTTGTTCTCCTTTCATCA
In the case of B1, the binding result (in data set [1]; with 2488prp (Xpp1 candidate)) was “binds” throughout.

B2: Lpxyn2 M (dsDNA)
DNA 1: TGATGAAAGGAGAACAACGGAGAGACTGGGTAAATTGGTCAATGGCCAGCCGCTC
DNA 2: GAGCGGCTGGCCATTGACCAATTTACCCAGTCTCTCCGTTGTTCTCCTTTCATCA
With B2, the binding result (in data set [1]; with 2488prp (Xpp1 candidate)) was “no binding” each time.
